{
  "source": "paper PMC4841237",
  "about": "“Structure and stability of recombinant bovine odorant-binding protein: II. Unfolding of the monomeric forms” (PeerJ, 2016)",
  "proteins": {"B1": {"name": "recombinant bovine odorant-binding protein (natural protein)", "chain": "AQEEEAEQNLSELSGPWRTVYIGSTNPEKIQENGPFRTYFRELVFDDEKGTVDFYFSVKRDGKWKNVHVKATKQDDGTYVADYEGQNVFKIVSLSRTHLVAHNINVDKHGQTTELTELFVKLNVEDEDLEKFWKLTEDKGIDKKNVVNFLENEDHPHPE", "notes": "In some samples 10 mM 1-octen-3-ol (OCT) was present; also called bOBP; bOBPwt; source: E. coli BL21(DE3), plasmid pT7-7-bOBP, purified (Ni+-agarose, HisGraviTrap)"}},
  "molecular_target": "the molecule itself",
  "test": "SEC; gel filtration on Superdex-75 PC 3.2/30, 20 mM Na-phosphate pH 7.8, without GdnHCl and at low GdnHCl (below 1.5-2 M), with or without 10 mM OCT; protein 0.1-0.2 mg/ml; monomer to dimer",
  "data": [
    {"protein": "B1", "values": [
      {"measurement": "stoichiometry N", "result": 2}
    ]}
  ]
}
